Values of other authors in article PMC6586500.

Target: Histone H3K9me3 peptide (Homo sapiens) (UniProt P68431)

Sequence of CBX5 (P45973 whole entry): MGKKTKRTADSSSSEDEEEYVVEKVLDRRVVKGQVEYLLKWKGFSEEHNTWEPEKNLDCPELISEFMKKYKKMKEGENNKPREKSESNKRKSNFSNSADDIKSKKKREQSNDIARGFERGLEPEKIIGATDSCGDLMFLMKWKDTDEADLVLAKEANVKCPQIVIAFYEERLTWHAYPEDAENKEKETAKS

Kd: 30 µM
Substance: CBX5 (from UniProt P45973)
